From patent US20060233806A1 (JAPAN SCIENCE AND TECHNOLOGY AGENCY, published 2006)

Molecular target: T1, mouse integrin αvβ3 on NIH3T3 cells (mouse, UniProt P43406 31-1044; O54890 26-787)
T1 construct: whole, on cells; Presented on NIH3T3 transformants; also called αvβ3 integrin; 3T3/αvβ3
Experiment: cell adhesion assay on PS-coated wells pretreated with D89E
Method: Peroxidase activity was detected using a peroxidase-detecting kit (Sumitomo Bakelite). To assay the ability of MFG-E8 to link the cells to phospholipids, MFG-E8 was bound to microtiter plates coated with phospholipids as described above. In tyrode buffer containing the cells (4×10⁴) (5 mM Hepes-NaOH buffer [pH 7.4], 135 mM NaCl, 5.4 mM KCl, 1.0 mM MgCl₂, 10 mM glucose, and 10 mg/ml BSA) was added to each well, and incubated at room temperature for 1 hour. The cells that had adhered to the plates were quantified by a CyQUANT Cell Proliferation Assay kit (Molecular Probes) using a fluorescent microplate reader (BioLumin 960, Molecular Dynamics) set at excitation wavelength of 485 nm and emission wavelength of 520 nm.
Therefore, the possibility that MFG-E8-L might bind to integrin-expressing cells after said cells are bound to phospholipids was investigated. Microtiter wells coated with PS or PE were successively incubated with three different concentrations (0.1, 1.0 and 2.0 μg/ml) of MFG-E8-L or D89E, and with NIH3T3 (3T3/WT) or αᵥβ₃ integrin-expressing transformants (3T3/αᵥβ₃), and subjected to cell adhesion assay. The number of cells attached to the wells was quantified as described in the methods described in Example A-6. […] D89E mutant was not capable of intermediating the adhering of NIH3T3 cells to the wells coated with PS. […]

T1 sequence (P43406 31-1044, chain 1 of 2): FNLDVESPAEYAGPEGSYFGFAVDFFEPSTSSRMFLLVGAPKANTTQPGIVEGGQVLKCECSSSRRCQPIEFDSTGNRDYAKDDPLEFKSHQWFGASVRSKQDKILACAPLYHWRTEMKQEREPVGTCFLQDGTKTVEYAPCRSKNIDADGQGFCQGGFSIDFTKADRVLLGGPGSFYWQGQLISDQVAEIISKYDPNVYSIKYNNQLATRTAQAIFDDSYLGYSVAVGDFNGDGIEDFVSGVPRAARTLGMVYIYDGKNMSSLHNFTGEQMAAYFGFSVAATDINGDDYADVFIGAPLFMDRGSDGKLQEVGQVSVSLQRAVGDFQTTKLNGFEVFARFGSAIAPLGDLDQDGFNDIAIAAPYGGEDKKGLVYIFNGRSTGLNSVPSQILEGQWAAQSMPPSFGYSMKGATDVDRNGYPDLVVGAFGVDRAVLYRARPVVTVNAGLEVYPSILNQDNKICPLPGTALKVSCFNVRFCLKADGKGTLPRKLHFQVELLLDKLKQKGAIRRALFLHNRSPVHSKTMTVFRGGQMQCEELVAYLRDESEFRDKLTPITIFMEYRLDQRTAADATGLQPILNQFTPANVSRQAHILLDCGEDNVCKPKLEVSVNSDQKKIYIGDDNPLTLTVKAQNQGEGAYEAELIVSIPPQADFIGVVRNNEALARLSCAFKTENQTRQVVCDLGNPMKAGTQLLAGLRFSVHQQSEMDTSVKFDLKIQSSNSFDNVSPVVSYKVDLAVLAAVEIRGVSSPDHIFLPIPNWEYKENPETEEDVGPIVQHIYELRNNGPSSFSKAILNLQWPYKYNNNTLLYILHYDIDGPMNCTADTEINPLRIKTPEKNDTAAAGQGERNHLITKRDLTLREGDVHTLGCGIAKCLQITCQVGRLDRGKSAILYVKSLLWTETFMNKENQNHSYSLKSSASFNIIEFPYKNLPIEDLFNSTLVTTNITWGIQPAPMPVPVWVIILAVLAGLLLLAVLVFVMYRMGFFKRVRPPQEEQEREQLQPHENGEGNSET
T1 sequence (O54890 26-787, chain 2 of 2): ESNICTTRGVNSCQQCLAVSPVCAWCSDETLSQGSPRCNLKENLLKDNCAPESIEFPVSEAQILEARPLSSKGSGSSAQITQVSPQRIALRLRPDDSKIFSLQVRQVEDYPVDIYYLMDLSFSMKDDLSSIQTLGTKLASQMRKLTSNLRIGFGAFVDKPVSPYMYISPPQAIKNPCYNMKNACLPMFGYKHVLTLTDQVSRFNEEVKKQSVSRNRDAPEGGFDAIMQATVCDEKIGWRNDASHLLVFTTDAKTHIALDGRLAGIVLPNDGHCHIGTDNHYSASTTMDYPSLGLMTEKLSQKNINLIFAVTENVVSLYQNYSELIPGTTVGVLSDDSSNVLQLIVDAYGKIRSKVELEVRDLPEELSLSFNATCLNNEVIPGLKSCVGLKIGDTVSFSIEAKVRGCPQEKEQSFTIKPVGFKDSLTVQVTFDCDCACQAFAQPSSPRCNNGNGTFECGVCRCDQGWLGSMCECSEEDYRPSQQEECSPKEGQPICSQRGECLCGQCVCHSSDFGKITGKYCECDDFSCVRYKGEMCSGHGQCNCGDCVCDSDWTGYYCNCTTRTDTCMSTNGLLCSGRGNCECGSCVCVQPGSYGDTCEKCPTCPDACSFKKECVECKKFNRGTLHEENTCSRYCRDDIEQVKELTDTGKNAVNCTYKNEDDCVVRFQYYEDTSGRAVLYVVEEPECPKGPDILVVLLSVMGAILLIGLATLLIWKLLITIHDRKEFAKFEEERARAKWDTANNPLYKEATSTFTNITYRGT

B1: D89E mutant of mouse MFG-E8-L (ligand)
chain: ASGDFCDSSLCLNGGTCLTGQDNDIYCLCPEGFTGLVCNETERGPCSPNPCYNDAKCLVTLDTQRGEIFTEYICQCPVGYSGIHCETETNYYNLDGEYMFTTAVPNTAVPTPAPTPDLSNNLASRCSTQLGMEGGAIADSQISASSVYMGFMGLQRWGPELARLYRTGIVNAWTASNYDSKPWIQVNLLRKMRVSGVMTQGASRAGRAEYLKTFKVAYSLDGRKFEFIQDESGGDKEFLGNLDNNSLKVNMFNPTLEAQYIRLYPVSCHRGCTLRFELLGCELHGCSEPLGLKNNTIPDSQMSASSSYKTWNLRAFGWYPHLGRLDNQGKINAWTAQSNSAKEWLQVDLGTQRQVTGIITQGARDFGHIQYVASYKVAHSDDGVQWTVYEEQGSSKVFQGNLDNNSHKKNIFEKPFMARYVRVLPVSWHNRITLRLELLGC
notes: Point mutation in the RGD motif of the second EGF domain; Expressed in human 293T cells; also called D89 mutant; not shown: FLAG marker peptide at the C-terminus (derivatives were detected with anti-FLAG)
- binding result: no binding (tested: 0.1, 1.0 and 2.0 µg/ml)
